Laboratory results taken from article PMC12143593, “Selective engineering of condensation properties of single-stranded DNA binding (SSB) protein via its intrinsically disordered linker region”.

What was measured:
Details in all cases: protein: recombinant; tags: N-terminal His6-TEV, removed; chain copies: 4; label: fluorescein
EcSSB WT = EcSSB WT (Escherichia coli, UniProt P0AGE0 1-178); test: fluorescence polarization; n = 1.7; 20 mM Tris-acetate pH 8, 50 mM K-glutamate, 10 mM Mg-acetate, 25 C; 10 nM labeled oligo, SSB concentrations as tetramers
EcSSB W136D = EcSSB W136D (Escherichia coli, UniProt P0AGE0 1-178, W136D); test: as above
EcSSB d2G = EcSSB d2G (Escherichia coli, UniProt P0AGE0 1-113+131-178, internal_change); test: fluorescence polarization; n = 1.8; 20 mM Tris-acetate pH 8, 50 mM K-glutamate, 10 mM Mg-acetate, 25 C; 10 nM labeled oligo, SSB concentrations as tetramers
EcSSB R116D-W136D = EcSSB R116D-W136D (Escherichia coli, UniProt P0AGE0 1-178, R116D;W136D); test: as above
EcSSB d1G = EcSSB d1G (Escherichia coli, UniProt P0AGE0 1-113+121-178, internal_change); test: fluorescence polarization; n = 2.2; 20 mM Tris-acetate pH 8, 50 mM K-glutamate, 10 mM Mg-acetate, 25 C; 10 nM labeled oligo, SSB concentrations as tetramers

B1: dT79 (ssDNA)
DNA: TTTTTTTTTTTTTTTTTTTTTTTTTTTTTTTTTTTTTTTTTTTTTTTTTTTTTTTTTTTTTTTTTTTTTTTTTTTTTTT
Kd (EcSSB WT): < 10 nM
Kd (EcSSB W136D): < 10 nM
Kd (EcSSB d2G): 11 ± 2.5 nM
Kd (EcSSB R116D-W136D): < 10 nM
Kd (EcSSB d1G): 11 ± 2.6 nM
